Marks after values point to notes of the source that are not given here.
How the values were obtained:
[1] = system: weanling pigs fed high P diet; test: Examples 4-8: cortical and cancellous bone ash and mineral profile; assay type: in vivo, pig; settings: 8 wk
Experimental: (§1) As in Examples 1-3, the animal protocol was approved by Cornell Animal Care and Use Committee. An 8-week feeding trial was conducted at Cornell University Swine Research Farm. Thirty weanling pigs (Yorkshire×Hampshire×Landrace, body weight=8.6±0.5 kg) were allocated into three groups (n=10). […] were fed a corn-soy basal diet (BD)+0.25% inorganic phosphorus (iP, dicalcium phosphate). Group 2 were fed BD+0.35% iP. Group 3 were fed BD+0.35% iP+3,400 units of phytase/kg (Escherichia coli appA2, OptiPhos, JBS United, Inc., Sheridan, Ind.). The BD (Table 7) contained adequate levels of all nutrients except for P^(63), and 0.25% iP is the supplementation level recommended by NRC^(24) to meet the P needs of this age of pigs. […] Pigs were housed in an environmentally-controlled barn (20-25° C.; 12-light: 12-dark cycle), and given free access to feed and water.
(§2) After the above mechanical tests, midshaft sections of both femur and metacarpus were cut and washed with de-ionized water. The cortical thickness of both bones was measured by slide caliper in the midshaft. Cortical and cancellous bones were separated for total ash and mineral analysis. A 3-cm long and 3-mm thick midshaft of femur and 1-cm long and 1.5-mm thick midshaft of metacarpus were used for cortical ash analysis. For cancellous bone, sponge-like bone from 3-cm below the growth plate of femur and 1.5-cm below the growth plate of metacarpus were collected. For ash analysis, bones were oven-dried at 110° C. for 24 h, and incinerated in a muffle furnace at 550° C. for 96 h. Concentrations of individual elements in the ash were measured using inductively coupled argon plasma spectrophotometer (ICAP 61E Trace Analyzer, Thermo Jarell Ash corporation, Franklin, Mass.)^(63), and were expressed on ash basis.

[2] = system: weanling pigs fed high P diet; test: Examples 4-8: femoral and metacarpal mechanical properties, dimensions, cortical thickness; assay type: in vivo, pig; settings: 8 wk
Experimental: as §1, with “Thirty weanling pigs (Yorkshire×Hampshire×Landrace, body weight=8.6±0.5 kg) were allocated into three groups (n=10).” left out, “Group 3 were fed BD+0.35% iP+3,400 units of phytase/kg (Escherichia coli appA2, OptiPhos, JBS United, Inc., Sheridan, Ind.).” left out
Growth performance of pigs was monitored at two week intervals. Blood samples of all individual pigs (fasted overnight for 8 h) were collected at initial (week 0) and then bi-weekly from the anterior vena cava using 5-mL heparin syringes to assay for concentrations of plasma iP^(73), Ca and Sr^(63). At the end of experiment, 5 pigs (2 male and 3 female) from each group were killed by electrical stunning and exsanguination. Both left and front right legs from each animal were removed from the body.
After the skin and major muscles were removed, two left legs were subjected to X-ray radiography using a Faxitron machine (Model 43855A; Hewlett Packard, McMinnville, Oreg., USA). Bone radiographs of femur and metacarpals were quantified by the kodac software. The software counted the total number of pixels. Thereafter, the 3rd and 4th metacarpals and femurs were collected to measure length, weight, height, and width after removing the remaining muscle and connective tissue. After the X-ray analysis, the two left legs were used for bone mechanical and mineral testing. Bone mechanical properties were determined by a three-point bending test (ASAE Standard S459 1992) using an Instron 4500 Machine Universal Testing Instrument (Model 1122, Instron, Canton, Mass.) with Instron Series IX Automated Materials Testing System Software (version 4.05). During testing, force was applied to the center of the bone held by supports 2.0 cm apart for metacarpals and 3.3 cm apart for femurs. The crosshead speed was set at 50 mm/min and the sampling rate was at 10 points/sec. The extrinsic parameters (stiffness/slope, maximum load, energy to break, maximum displacement) were derived from the force-displacement curve. Bone breaking strength was calculated with the adjustment of bone weight, and the average strength of the 3rd and 4th metacarpal was used as the metacarpal strength for each pig.
as §2

[3] = 0.35% iP + Sr 50 mg/kg + phytase 3,400 U/kg, P<0.01
[4] = 0.35% iP + Sr 50 mg/kg + phytase 3,400 U/kg, P<0.05

B1: Phytase: Escherichia coli AppA2 phytase (OptiPhos, JBS United, Inc.), added to diets at feed mixing; AppA2 is SEQ ID NO: 2 (protein, listed as Escherichia coli)
chain: MKAILIPFLSLLIPLTPQSAFAQSEPELKLESVVIVSRHGVRAPTKATQLMQDVTPDAWPTWPVKLGWLTPRGGELIAYLGHYQRQRLVADGLLAKKGCPQPGQVAIIADVDERTRKTGEAFAAGLAPDCAITVHTQADTSSPDPLFNPLKTGVCQLDNANVTDAILSRAGGSIADFTGHRQTAFRELERVLNFSQLNLCLNREKQDESCSLTQALPSELKVSADNVSLTGAVSLASMLTEIFLLQQAQGMPEPGWGRITDSHQWNTLLSLHNAQFYLLQRTPEVARSRATPLLDLIMAALTPHPPQKQAYGVTLPTSVLFIAGHDTNLANLGGALELNWTLPGQPDNTPPGGELVFERWRRLSDNSQWIQVSLVFQTLQQMRDKTPLSLNTPPGEVKLTLAGCEERNAQGMCSLAGFTQIVNEARIPACSL
For B1, the “decrease of P concentration in cancellous bones, femur and metacarpus” value ([1]; 0.35% iP + Sr 50 mg/kg + phytase 3,400 U/kg) was 22 to 31%, the “elevation of Sr concentration in cancellous bone, metacarpus” value ([1]; 0.35% iP + Sr 50 mg/kg + phytase 3,400 U/kg, P<0.002) was 115 fold and the “enhancement of cancellous bone ash of femur” value [1, 3] was 12%. For the same molecule, the “enhancement of cancellous bone ash of metacarpus” value [1, 3] was 5%, the “increase of total ash concentration of cortical bone, metacarpals” value [1, 3] was 3% and the “increase in Fe concentration of cancellous bone, femur” value [1, 4] was 33%. For the same molecule, the “Femur cancellous bone Ca” value ([1]; 0.35% iP + phytase 3400 U, n=5) was 311.0^b g/Kg ash, the “Femur cancellous bone Cr” value ([1]; 0.35% iP + phytase 3400 U, n=5) was 10.0 mg/kg ash and the “Femur cancellous bone Fe” value ([1]; 0.35% iP + phytase 3400 U, n=5) was 75.6^a mg/kg ash. The “Femur cancellous bone Mg” value ([1]; 0.35% iP + phytase 3400 U, n=5) was 6.0^b g/Kg ash, the “Femur cancellous bone Na” value ([1]; 0.35% iP + phytase 3400 U, n=5) was 8.3^b g/Kg ash and the “Femur cancellous bone P” value ([1]; 0.35% iP + phytase 3400 U, n=5) was 155.0^b g/Kg ash. For the same molecule, the “Femur cancellous bone S” value ([1]; 0.35% iP + phytase 3400 U, n=5) was 1833.2^b mg/kg ash, the “Femur cancellous bone Sr” value ([1]; 0.35% iP + phytase 3400 U, n=5) was 93680.7^a mg/kg ash and the “Femur cancellous bone Zn” value ([1]; 0.35% iP + phytase 3400 U, n=5) was 395.7^a mg/kg ash. For the same molecule, the “Femur compact bone Ca” value ([1]; 0.35% iP + phytase 3400 U, n=5) was 403.0 g/Kg ash, the “Femur compact bone Cr” value ([1]; 0.35% iP + phytase 3400 U, n=5) was 12.6 mg/kg ash and the “Femur compact bone Fe” value ([1]; 0.35% iP + phytase 3400 U, n=5) was 25.1 mg/kg ash. The “Femur compact bone Mg” value ([1]; 0.35% iP + phytase 3400 U, n=5) was 7.6 g/Kg ash, the “Femur compact bone Na” value ([1]; 0.35% iP + phytase 3400 U, n=5) was 9.4 g/Kg ash and the “Femur compact bone P” value ([1]; 0.35% iP + phytase 3400 U, n=5) was 199.0 g/Kg ash. The “Femur compact bone S” value ([1]; 0.35% iP + phytase 3400 U, n=5) was 649.9^b mg/kg ash, the “Femur compact bone Sr” value ([1]; 0.35% iP + phytase 3400 U, n=5) was 568.8^b mg/kg ash and the “Femur compact bone Zn” value ([1]; 0.35% iP + phytase 3400 U, n=5) was 278.8 mg/kg ash. The “Metacarpus cancellous bone Ca” value ([1]; 0.35% iP + phytase 3400 U, n=5) was 329.0^b g/kg ash, the “Metacarpus cancellous bone Cr” value ([1]; 0.35% iP + phytase 3400 U, n=5) was 10.7 mg/kg ash and the “Metacarpus cancellous bone Fe” value ([1]; 0.35% iP + phytase 3400 U, n=5) was 66.4^a mg/kg ash. The “Metacarpus cancellous bone Mg” value ([1]; 0.35% iP + phytase 3400 U, n=5) was 6.0 g/kg ash, the “Metacarpus cancellous bone Na” value ([1]; 0.35% iP + phytase 3400 U, n=5) was 7.6^b g/kg ash and the “Metacarpus cancellous bone P” value ([1]; 0.35% iP + phytase 3400 U, n=5) was 161.0^b g/kg ash. The “Metacarpus cancellous bone S” value ([1]; 0.35% iP + phytase 3400 U, n=5) was 1334.5^b mg/kg ash, the “Metacarpus cancellous bone Sr” value ([1]; 0.35% iP + phytase 3400 U, n=5) was 86221.0^a mg/kg ash and the “Metacarpus cancellous bone Zn” value ([1]; 0.35% iP + phytase 3400 U, n=5) was 334.3 mg/kg ash. The “Metacarpus compact bone Ca” value ([1]; 0.35% iP + phytase 3400 U, n=5) was 398.0 g/Kg ash, the “Metacarpus compact bone Cr” value ([1]; 0.35% iP + phytase 3400 U, n=5) was 13.3 mg/kg ash and the “Metacarpus compact bone Fe” value ([1]; 0.35% iP + phytase 3400 U, n=5) was 24.7 mg/kg ash. For the same molecule, the “Metacarpus compact bone Mg” value ([1]; 0.35% iP + phytase 3400 U, n=5) was 7.2 g/Kg ash, the “Metacarpus compact bone Na” value ([1]; 0.35% iP + phytase 3400 U, n=5) was 8.6 g/Kg ash and the “Metacarpus compact bone P” value ([1]; 0.35% iP + phytase 3400 U, n=5) was 195.0 g/Kg ash. For the same molecule, the “Metacarpus compact bone S” value ([1]; 0.35% iP + phytase 3400 U, n=5) was 763.8^b mg/kg ash, the “Metacarpus compact bone Sr” value ([1]; 0.35% iP + phytase 3400 U, n=5) was 541.4^b mg/kg ash and the “Metacarpus compact bone Zn” value ([1]; 0.35% iP + phytase 3400 U, n=5) was 307.7 mg/kg ash. The “increases in Sr concentration in cancellous bones of femur and metacarpus vs 0.35% iP” value ([1]; phytase 3,400 U/kg into the 0.35% iP diet) was > 100 fold, the “greater cortical bone thickness of femur vs 0.35% iP” value [2, 4] was 32% and the “greater cortical bone thickness of metacarpus vs 0.35% iP” value [2, 4] was 7%. For the same molecule, the “greater energy to break of femur vs 0.35% iP” value [2, 4] was 26%, the “greater energy to break of metacarpus vs 0.35% iP” value [2, 4] was 14% and the “greater maximal load of femur vs 0.35% iP” value [2, 4] was 38%. For the same molecule, the “greater maximal load of metacarpus vs 0.35% iP” value [2, 4] was 20%, the “greater stiffness of femur vs 0.35% iP” value [2, 4] was 12% and the “greater stiffness of metacarpus vs 0.35% iP” value [2, 4] was 8%. For the same molecule, the “femoral Cross-sectional area” value ([2]; 0.35% iP + phytase 3400 U, n=5) was 199.7 mm^2, the “femoral Height” value ([2]; 0.35% iP + phytase 3400 U, n=5) was 21.8 mm and the “femoral Length” value ([2]; 0.35% iP + phytase 3400 U, n=5) was 143.7 mm. For the same molecule, the “femoral Max. Displacement” value ([2]; 0.35% iP + phytase 3400 U, n=5) was 4.9 mm, the “femoral Weight” value ([2]; 0.35% iP + phytase 3400 U, n=5) was 202.2 g and the “femoral Width” value ([2]; 0.35% iP + phytase 3400 U, n=5) was 23.3 mm. For the same molecule, the “metacarpal Height” value ([2]; 0.35% iP + phytase 3400 U, n=5) was 14.8 mm, the “metacarpal Length” value ([2]; 0.35% iP + phytase 3400 U, n=5) was 60.5 mm and the “metacarpal Max. Displacement” value ([2]; 0.35% iP + phytase 3400 U, n=5) was 8.9 mm. The “metacarpal Weight” value ([2]; 0.35% iP + phytase 3400 U, n=5) was 19.2 g and the “metacarpal Width” value ([2]; 0.35% iP + phytase 3400 U, n=5) was 15.0 mm.
